The values below come from US7041463B2, “Orthologues of human receptors and methods of use” (Pharmacopeia Drug Discovery, Inc., priority 2000, dated 2006).

As usually defined, the Kd is the concentration at which binding is half-saturated. For orientation: Ki means the equilibrium dissociation constant of an inhibitor or competing ligand from its target. A low value points to a stronger hold on the target.

The target in assay [1] is B1 receptors (species homologues). Nature of the assay: [3H]-des-Arg10-kallidin binding across all cloned B1 orthologues. To be noted: 0.6 nM or 1.5 nM (rat) [3H]-dAKd. The procedure: (§1) Membrane preparations for use in accordance with the methods of the present invention were generated as follows. 293E cells expressing B1 receptors were harvested and pelleted. Cells were washed once with PBS and once with a membrane buffer (for example, 10 mM HEPES pH 7.5, 1 μM phosphoramidon, 3 μM amastatin, 1 μM captopril, 2 μM dithiothreitol (DTT)). Cells were resuspended in membrane buffer and Dounce homogenized on ice 35 times. The membranes were collected by centrifugation at 15,000×g for 30 min. at 4° C. and resuspended in membrane buffer containing 0.2% bovine serum albumin (BSA) at a final concentration of approximately 5×10^7 cell equivalents per ml. Aliquots were flash frozen and stored at −80° C. Frozen aliquots were subsequently thawed, diluted, and sonicated on ice using a Branson Sonifier® 250 (4×5 sec, 40% output).
(§2) Prior to use in a binding assay, a membrane preparation is “calibrated” as described below to determine the amount of membrane preparation to be used. […]
(§3) The method of the present invention employs a binding assay such as the one described below. […] 50 μl of scintillation fluid was added to each well and plates were counted in a Wallac Microbeta® TriLux for 10 min. per well.

Another assay has as its target tree shrew B1 receptor. The experiment in a line: [3H]-des-Arg10-kallidin binding, 293E membranes, tree shrew B1. Also noted: species or system tree shrew (Tupaia minor). To be noted: read-out: average dissociation constant (KD). Here is the method:
as §1, §2, §3

The subject of the next assay is CXCR2 receptor. Nature of the assay: CXCR2 radioligand binding, 293E membranes, monkey/primate receptors. Particulars: recombinant CXCR2 from six primate species. The procedure:
Membrane preparations for use in accordance with the methods of the present invention were generated as follows. 293E cell monolayers expressing CXCR2 receptors were washed twice with PBS and 5 ml of ice cold homogenizing buffer (for example, 10 mM HEPES pH 8.0, 10 mM EDTA). Cells were resuspended in membrane buffer and Dounce homogenized on ice 35 times. The membranes were collected by centrifugation at 15,000×g for 30 min. at 4° C. and resuspended in membrane storage buffer (10 mM Tris-HCl pH8.0, 1.2 mM MgSO4, 0.1 mM EDTA, 25 mM NaCl, 1 unit/ml bacitracin) at a final concentration of approximately 5×10^7 cell equivalents per ml. Aliquots were flash frozen and stored at −80° C. Frozen aliquots were subsequently thawed, diluted, and sonicated on ice using a Branson Sonifier® 250 (4×5 sec, 40% output).
Prior to use in a binding assay, a membrane preparation is “calibrated” as described below to determine the amount of membrane preparation to be used. A frozen sample of a membrane preparation is thawed and the preparation diluted in assay buffer to obtain several different concentrations of membranes, for example, 1:5, 1:10, 1:20, 1:40 and so on. The diluted membrane preparation is sonicated in a bath style sonicator for 5 minutes at room temperature. Each dilution is plated in a 96-well plate, for example, with quintuplicate samples for binding of ligand and wells to evaluate non-specific binding in triplicate. The dilutions that yield approximately 200 cpm total counts are chosen for subsequent assays.
For determining binding affinity for the orthologous CXCR2 receptors, described herein, the method of the present invention employs a binding assay such as the one described below. A suitable binding assay buffer for receptor binding consists of 10 mM Tris pH 8.0, 0.1 mM EDTA, 1.2 mM MgSO4, 25 mM NaCl and 0.03% CHAPS (Sigma, St. Louis, Mo.). […] 50 μl of scintillation fluid was added to each well and plates were counted in a Wallac Microbeta® TriLux for 1 min. per well.

For assay [2], the target named is rhesus macaque bradykinin B1 receptor (UniProt Q8HZP2). The experiment in a line: radioligand competition binding. (In general: Loss of bound radioactivity is the signal in a displacement assay; it reports binding, not function.)
Assay [3] addresses human bradykinin B1 receptor (human) (UniProt P46663). Nature of the assay: radioligand competition binding.
Assay [4] concerns the target rabbit bradykinin B1 receptor (rabbit) (UniProt P48748). The experiment in a line: radioligand competition binding.
In assay [5] the target is pig bradykinin B1 receptor (UniProt Q8HZN9). Nature of the assay: radioligand competition binding.
pig bradykinin B1 receptor, sequence (Q8HZN9 whole entry): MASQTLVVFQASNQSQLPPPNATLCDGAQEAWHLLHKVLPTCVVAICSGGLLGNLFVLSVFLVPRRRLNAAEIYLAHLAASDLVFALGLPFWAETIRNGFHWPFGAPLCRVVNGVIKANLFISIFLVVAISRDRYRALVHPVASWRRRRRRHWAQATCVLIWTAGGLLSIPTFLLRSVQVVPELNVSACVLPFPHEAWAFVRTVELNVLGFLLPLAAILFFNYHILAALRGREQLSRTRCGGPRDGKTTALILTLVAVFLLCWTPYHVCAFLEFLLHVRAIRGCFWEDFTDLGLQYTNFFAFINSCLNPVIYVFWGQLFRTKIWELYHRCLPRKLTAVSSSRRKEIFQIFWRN
The target of assay [6] is tree shrew bradykinin B1 receptor (UniProt Q8HZP1). Nature of the assay: radioligand competition binding.
tree shrew bradykinin B1 receptor, sequence (Q8HZP1 whole entry): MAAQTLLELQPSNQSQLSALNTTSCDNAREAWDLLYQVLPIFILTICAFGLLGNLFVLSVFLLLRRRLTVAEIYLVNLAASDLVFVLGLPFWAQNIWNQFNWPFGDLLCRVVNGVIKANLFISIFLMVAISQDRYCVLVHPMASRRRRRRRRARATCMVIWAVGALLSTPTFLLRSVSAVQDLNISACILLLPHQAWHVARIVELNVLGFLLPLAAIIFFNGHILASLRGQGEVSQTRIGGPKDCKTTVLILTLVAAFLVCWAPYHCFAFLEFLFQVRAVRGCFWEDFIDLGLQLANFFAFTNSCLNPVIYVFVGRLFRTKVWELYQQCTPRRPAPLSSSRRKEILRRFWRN
The target in assay [7] is canine/human chimeric bradykinin B1 receptor (UniProt Q9BDQ5). The experiment in a line: radioligand competition binding.
For another assay, the target named is T1, dog B1 (Canis lupus familiaris, UniProt Q9BDQ5, D322E/F324Y/R319K).
T1 construct: the chimeric canine/human receptor described above was used in the experiments described below; C-terminal cytoplasmic tail of human bradykinin B1 receptor (fusion partner of the chimera); expressed in transfected cells; host or cells: 293-EBNA (293E) cells, membranes
T1 sequence (Q9BDQ5 with tags, fused parts or gaps R319K/D322E/F324Y): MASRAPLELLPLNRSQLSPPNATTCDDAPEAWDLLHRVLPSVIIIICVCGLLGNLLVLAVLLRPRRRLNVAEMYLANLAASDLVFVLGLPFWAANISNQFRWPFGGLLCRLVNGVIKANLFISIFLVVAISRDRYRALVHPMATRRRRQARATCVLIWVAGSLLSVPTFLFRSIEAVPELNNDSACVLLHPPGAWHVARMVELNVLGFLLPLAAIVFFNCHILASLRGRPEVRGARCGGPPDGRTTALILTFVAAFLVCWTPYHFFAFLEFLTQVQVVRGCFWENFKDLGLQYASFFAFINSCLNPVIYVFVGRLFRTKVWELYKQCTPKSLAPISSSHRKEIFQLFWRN
The experiment in a line: [3H]-des-Arg10-kallidin binding, 293E membranes, dog B1 (canine/human chimera). Particulars: 0.6 nM [3H]-dAKd.
Description: Additionally, a canine/human chimeric bradykinin B1 receptor comprising amino acids 1 to 320 of the canine sequence and amino acids 319–353 of human bradykinin B1 receptor was generated. Any number of chimeric molecules, for example, a chimera comprising amino acids 1–315 of the canine sequence and amino acids 314–353 of the human sequence can be used.
as §1, with “Frozen aliquots were subsequently thawed, diluted, and sonicated on ice using a Branson Sonifier® 250 (4×5 sec, 40% output).” left out
as §3

The target in assay [8] is rhesus macaque bradykinin B1 receptor (UniProt Q8HZP2). Nature of the assay: radioligand saturation binding; legend: [3H]-des-Arg10-kallidin.
The target in assay [9] is human bradykinin B1 receptor (human) (UniProt P46663). The assay is described as above.
Assay [10] has as its target rabbit bradykinin B1 receptor (rabbit) (UniProt P48748). The assay is described as above.
Assay [11] addresses pig bradykinin B1 receptor (UniProt Q8HZN9). The assay is described as above.
In assay [12] the target is tree shrew bradykinin B1 receptor (UniProt Q8HZP1). The description is as above.
In assay [13] the target is canine/human chimeric bradykinin B1 receptor (UniProt Q9BDQ5). Described as above.

rabbit bradykinin B1 receptor (rabbit), sequence (P48748 whole entry): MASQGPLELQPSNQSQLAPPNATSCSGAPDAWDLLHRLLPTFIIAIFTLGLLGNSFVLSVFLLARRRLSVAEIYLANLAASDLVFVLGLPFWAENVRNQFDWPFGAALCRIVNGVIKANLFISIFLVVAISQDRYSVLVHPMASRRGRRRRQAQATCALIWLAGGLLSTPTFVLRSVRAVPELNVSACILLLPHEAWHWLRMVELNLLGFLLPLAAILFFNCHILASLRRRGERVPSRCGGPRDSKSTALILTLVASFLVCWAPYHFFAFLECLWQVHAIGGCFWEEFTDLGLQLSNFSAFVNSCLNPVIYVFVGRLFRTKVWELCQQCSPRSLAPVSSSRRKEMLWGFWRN
[des-Arg^10] [Leu^9]kallidin, sequence (P01042 whole entry, looked up): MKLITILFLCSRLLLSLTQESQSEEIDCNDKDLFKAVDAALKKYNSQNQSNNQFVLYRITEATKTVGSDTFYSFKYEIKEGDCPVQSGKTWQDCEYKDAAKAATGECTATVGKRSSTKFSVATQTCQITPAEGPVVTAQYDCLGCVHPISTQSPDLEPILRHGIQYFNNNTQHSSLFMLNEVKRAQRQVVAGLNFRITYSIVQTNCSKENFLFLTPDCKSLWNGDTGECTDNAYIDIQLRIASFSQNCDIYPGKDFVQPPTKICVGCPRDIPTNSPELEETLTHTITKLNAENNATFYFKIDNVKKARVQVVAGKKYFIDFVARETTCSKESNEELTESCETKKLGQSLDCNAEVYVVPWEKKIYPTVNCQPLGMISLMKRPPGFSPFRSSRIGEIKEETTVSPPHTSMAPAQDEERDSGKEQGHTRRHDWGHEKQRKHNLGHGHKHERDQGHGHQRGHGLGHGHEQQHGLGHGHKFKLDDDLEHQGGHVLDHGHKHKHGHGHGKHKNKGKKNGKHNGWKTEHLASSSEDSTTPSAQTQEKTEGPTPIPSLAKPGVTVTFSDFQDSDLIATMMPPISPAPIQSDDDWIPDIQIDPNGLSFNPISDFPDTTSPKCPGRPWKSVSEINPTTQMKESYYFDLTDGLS
des-Arg^10-kallidin, sequence (P01042 whole entry, looked up): as above

Take `N=C(N)NCCC[C@H](NC(=O)[C@@H](N)CCCCN)C(=O)N1CCC[C@H]1C(=O)N1CCC[C@H]1C(=O)NCC(=O)N[C@@H](Cc1ccccc1)C(=O)N[C@@H](CO)C(=O)N1CCC[C@H]1C(=O)N[C@@H](Cc1ccccc1)C(=O)O` [dAKd, des-Arg^10-Kallidin]: the “affinity (K1) at all B1 species homologues, in words” value was “approximately equipotent” in assay [1] and “strong affinity” in assay [1] (listed as dAKD). For the same molecule, the Kd on tree shrew B1 receptor turned out to be 4.2 nM.

As to “ENA-78: ligand bound by the encoded CXCR2 receptors”, the “binding to the encoded receptors, in words” value (“binding” for short) in the assay on CXCR2 receptor is reported as “capable of binding”.

Take “Gro-alpha: ligand bound by the encoded CXCR2 receptors”: the “binding” value in the assay with CXCR2 receptor is reported as “capable of binding”.

Turning to “[des-Arg^10] [Leu^9]kallidin (from UniProt P01042 380-388)”, the inhibition constant Ki in [2] came out at 9.5 nM; in assay [3], 4.6 nM; in assay [4] it was 9.3 nM; in assay [5], 9.5 nM; in assay [6], 22 nM; in assay [7], 120 nM.

[des-Arg^10] [Leu^9]kallidin [dALKd]: on dog B1, the “affinity (K1) at dog B1, in words” value is listed as “more than an order of magnitude weaker”.

Regarding “des-Arg^10-kallidin (from UniProt P01042 380-388)”, the dissociation constant (Kd) in assay [8] is given as 2.8 ?; in assay [9] it was 0.6 ?; in assay [10] it was 1.3 ?; in [11] it was 1.9 ?; in [12], 4.2 ?; in [13], 3.3 ?. The inhibitory constant (Ki) in assay [2] stood at 3.3 nM; in [3], 1.5 nM; in assay [4] it was 3.4 nM; in [5] it was 2.3 nM; in assay [6] it was 6.1 nM; in [7] it was 4.2 nM.

For the molecule interleukin 8: native ligand of CXCR2, the “binding” value with CXCR2 receptor is listed as “capable of binding”.
